From patent US8927500 come the findings set out here.

Values joined by “and” are separate entries in the source; they are usually repeats but may differ in a detail not shown here. Identical values can stand only once. Where only a bound is given, the exact number is not on record here.

The target in this experiment is MDM2 (In-house, 41 kD) (UniProt Q00987). Description: competitive fluorescence polarization, MDM2 with FAM-labeled linear peptide; graded scale of paragraph 458. For orientation: Fluorescence polarisation rises when a labelled molecule tumbles more slowly, as on binding a larger partner.
Chain of MDM2 (In-house, 41 kD) (Q00987 1-138 limits assumed): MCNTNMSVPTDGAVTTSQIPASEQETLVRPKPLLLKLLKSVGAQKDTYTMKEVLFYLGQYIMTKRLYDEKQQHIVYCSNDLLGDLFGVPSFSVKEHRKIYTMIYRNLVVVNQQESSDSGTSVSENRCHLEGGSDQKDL
Consider “peptidomimetic macrocycle SP757, Ac-tawy$s8nf4CF3ekll$r5a-NH2 (peptide)”, for which the IC50 – broadly, the concentration needed to halve the response being measured – was < 10 nM.

In the case of “peptidomimetic macrocycle SP755, Ac-tawyanf4CF3e$r5llr$r5a-NH2 (peptide)”, the IC50 was < 10 nM.

For “peptidomimetic macrocycle SP752, Ac-t$r5wya$r5f4CF3ekllr-NH2 (peptide)”, the half-inhibitory concentration (IC50) is > 100 nM and < 1000 nM.

Take “peptidomimetic macrocycle SP756, Ac-t$s8wyanf4CF3e$r5llr-NH2 (peptide)”: the half-maximal inhibitory concentration (IC50) was > 10 nM and < 100 nM.

For “peptidomimetic macrocycle SP754, Ac-tawya$r5f4CF3ek$r5lr-NH2 (peptide)”, the IC50 is > 100 nM and < 1000 nM.

As to “peptidomimetic macrocycle SP758, Ac-tawya$s8f4CF3ekllr$r5a-NH2 (peptide)”, the IC50 was > 10 nM and < 100 nM.

Consider “peptidomimetic macrocycle SP753, Ac-tawy$r5nf4CF3e$r5llr-NH2 (peptide)”, for which the IC50 was > 10 nM and < 100 nM.
